Measured values from the supplement of paper PMC10567573.

B1: ZER1 (parent)
chain: FDGPEAWGVCEPQREEVEERMWAA

Variants of: B1
Experiment: protein stability index of a GFP-peptide fusion (GPS, HEK-293T) (PSI 1-6); higher = more stable
Conditions: c terminus: a fixed tail appended
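Also: lentivirally expressed fusions sorted by FACS into six bins by GFP to DsRed ratio, PSI derived from sequencing read proportions per bin multiplied by bin number.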

Protein stability index of substitutions, site by site:
F1: E 4.99, G 4.72, I 4.69, K 3.97, L 3.93, M 3.3, N 4.87, P 5.04, Q 4.88, R 4.45, S 4.77, T 4.94, W 4.5, Y 3.15
D2: E 2.08, F 1.68, I 5.1, K 3.26, L 2.62, Q 2.69, R 1.8, W 3.21
G3: C 3.88, D 2.56, E 1.52, F 2.06, H 1.87, I 1.78, L 1.62, M 2.1, N 2.58, P 4.42, S 1.96, T 1.98, V 1.63, W 2.12
P4: A 2.48, C 2.63, D 3.89, E 4.48, F 1.91, G 2.73, H 1.79, I 3.23, K 3.02, L 2.47, M 3.65, Q 3.25, R 2.81, S 3.29, T 3.25, V 2.48, Y 1.95
E5: A 2.82, C 3.73, D 2.99, F 3.67, G 3.26, H 2.59, I 2.94, K 3.13, L 1.64, N 1.95, P 3.42, Q 3.54, R 3.48, S 2.61, V 3.33, W 2.54, Y 2.76
A6: C 2.57, D 4.67, E 4.45, G 3.38, H 2.38, I 2.43, K 3.02, L 1.56, N 3.6, P 3.77, Q 3.59, R 3.35, S 3.53, T 2.48, V 2.76, W 1.63, Y 1.82
W7: A 4.29, C 4.66, D 5.1, E 4.54, G 4.94, H 4.63, I 4.89, K 4.81, M 3.64, N 4.58, P 4.52, Q 5.22, R 3.97, S 4.92, T 4.69, V 4.98, Y 3.98
G8: A 1.96, C 2.33, D 3.75, E 4.19, F 1.55, H 2.33, I 2.25, K 2.25, L 3.64, M 1.79, N 2.62, P 4.17, Q 2.74, R 2.42, S 1.95, V 1.6, Y 3.39
V9: A 3.21, C 2.03, D 4.92, E 4.03, F 2.94, G 3.25, H 3.18, I 2.09, K 2.59, M 2.63, N 3.35, P 3.08, Q 3.05, R 2.5, S 4.12, T 3.15, W 3.22, Y 2.48
C10: A 3.02, D 4.42, E 3.93, F 3.21, G 4.03, H 3.64, I 2.86, K 3.48, L 3.15, M 3.13, N 3.26, P 3.64, Q 3.26, R 2.6, S 2.66, T 3.3, V 2.55, W 2.6, Y 2.86
E11: A 1.87, C 2.15, D 2.67, F 1.89, H 2.55, I 3.01, K 2.12, L 1.85, M 3.24, N 1.83, P 2.64, Q 1.9, R 1.93, S 2.73, T 2.58, V 1.96, W 1.81, Y 1.87
P12: C 2.33, D 2.88, E 3.17, F 2.93, G 2.69, H 3.17, I 2.31, K 2.9, L 2.47, M 3.3, Q 3.22, R 3.53, S 3.14, T 3.17, V 2.47, W 3.81, Y 2.64
Q13: A 2.72, D 2.92, E 2.86, F 2.31, G 2.75, H 2.44, I 2.76, K 2.91, L 2.68, M 2.46, N 2.94, R 2.21, S 2.71, T 2.43, V 3.23, W 2.17, Y 2.39
R14: A 2.18, C 2.25, D 2.88, E 3.16, F 2.74, G 3.36, H 2.31, I 2.97, L 1.8, M 3.08, N 2.86, P 3.26, Q 2.09, S 2.56, T 2.54, V 2.16, W 2.52, Y 2.46
E15: A 2.45, C 3.02, D 2.43, F 1.56, G 2.19, H 1.79, I 2.02, K 2.92, L 2.2, M 2.34, N 2.31, P 1.46, Q 2.5, R 2.79, S 2.13, T 2.62, V 2.63, W 1.52, Y 2.32
E16: A 2.33, C 2.24, D 2.14, F 2.62, G 2.04, H 2.66, I 2.34, K 1.98, L 1.62, M 1.99, N 2.37, P 2.04, R 2.16, S 2.25, T 2.72, V 2.02, W 1.63, Y 2.11
V17: A 2.27, C 2.3, D 2.61, E 3.18, F 3.62, G 2.36, H 2.77, I 2.26, K 2.41, L 2.34, M 2.26, N 3.28, P 2.65, Q 2.55, R 2.24, S 2.64, T 2.47, W 2.44, Y 2.75
E18: A 2.27, C 2, D 2.68, F 2.5, G 3.36, H 3.04, I 2.21, K 1.57, L 2.11, M 1.84, N 1.92, P 2.69, Q 1.95, R 2.53, S 2.52, T 2.62, V 2.12, W 2.04, Y 2.08
E19: A 2.68, C 2.05, D 2.48, F 2.1, G 2.15, H 1.91, I 2.09, K 3.35, L 2.17, M 2.22, N 2.4, P 2.21, Q 2.55, R 2.35, S 2.45, T 2.87, V 1.98, W 2.05, Y 1.94
R20: A 3.1, C 2.6, D 2.94, E 3.17, F 2.65, G 2.96, H 2.55, I 2.27, K 2.34, L 2.55, M 3.09, N 2.75
